Results from publication doi:10.1101/2021.10.13.464218 (bioRxiv, 2021).

What was measured:
[1] = target: intimin (EHEC adhesin), overexpressed on the E. coli surface (Escherichia coli O157:H7 (EHEC), …, UniProt P43261); assay: flow cytometry on cells
[2] = target: Ag2 (EPEA), displayed on E. coli (synthetic EPEA peptide tag (sequence …)); assay: flow cytometry on cells

intimin (EHEC adhesin), overexpressed on the E. coli surface, sequence (P43261 40-934): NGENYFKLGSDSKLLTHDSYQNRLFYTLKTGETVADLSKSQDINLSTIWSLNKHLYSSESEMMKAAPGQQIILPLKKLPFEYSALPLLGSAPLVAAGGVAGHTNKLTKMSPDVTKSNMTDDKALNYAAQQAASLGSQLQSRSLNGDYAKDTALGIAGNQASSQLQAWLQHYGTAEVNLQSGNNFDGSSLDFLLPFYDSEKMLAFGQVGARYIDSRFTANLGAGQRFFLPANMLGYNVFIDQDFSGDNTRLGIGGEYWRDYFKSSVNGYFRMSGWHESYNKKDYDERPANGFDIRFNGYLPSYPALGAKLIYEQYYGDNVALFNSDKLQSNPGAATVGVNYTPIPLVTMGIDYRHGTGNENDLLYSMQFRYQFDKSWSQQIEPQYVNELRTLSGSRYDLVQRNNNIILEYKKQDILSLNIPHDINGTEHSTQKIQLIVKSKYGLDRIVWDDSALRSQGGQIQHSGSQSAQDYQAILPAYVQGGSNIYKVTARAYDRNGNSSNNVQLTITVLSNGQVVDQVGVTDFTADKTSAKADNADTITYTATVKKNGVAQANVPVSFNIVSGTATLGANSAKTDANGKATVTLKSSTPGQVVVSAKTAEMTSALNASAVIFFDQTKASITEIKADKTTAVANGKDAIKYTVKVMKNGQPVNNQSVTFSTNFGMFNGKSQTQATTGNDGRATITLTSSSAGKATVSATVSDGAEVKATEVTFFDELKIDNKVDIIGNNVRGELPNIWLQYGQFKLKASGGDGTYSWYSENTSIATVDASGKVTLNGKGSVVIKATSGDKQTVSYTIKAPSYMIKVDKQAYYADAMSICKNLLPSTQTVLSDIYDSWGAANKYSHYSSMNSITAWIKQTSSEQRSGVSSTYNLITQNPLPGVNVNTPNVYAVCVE

Binder	binding result [1]	binding result [2]
IB10 nanobody against intimin, yeast-displayed (VHH) VHH: QVQLVESGGGSVQAGGSLRLSCKASGFTFPYSDMGWYRQTPGNECELVSTTGPESDPSFWYADSVKGRFTISRDNTKNTVYLQMNDLKPEDTGMYVCASELGAGSGRCYGYHYWGQGTQVTVSS	binds	–
Nb3 (anti-P53TA) nanobody, yeast-displayed (VHH) VHH: QVQLQESGGGSVRPGESLRLSCIAAGTLFSGKAVGWYRQAPGKDRELVAALSSGRETYYIGPVKGRFIISRDDNKDTLYLQMNNLKLEDTAIYTCRLGLHWGQGTQVTVSS	–	no binding
